Results reported in the supplement of paper PMC7125110.
Variants at the floor of the assay were thinned out.

B1: glmS ribozyme (parent)
chain: AUAAAAGCGCCAGAACUACAGAAAUGUAGUUGACGAGGAGGAGGUUUAUCGAAUUUUCGGCGGAUGCCUCCAAA

Experiments:
Details in all cases: with glucosamine-6-phosphate
[1] = variants of: B1; assay: self-cleavage kobs at 40 uM GlcN6P; higher = faster cleavage; RNA array
How it was run: (§1)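 In situ transcription by E. coli RNA polymerase produced barcoded ribozyme variants on sequenced MiSeq chips, and a hybridised Cy3 probe tracked them at 37 °C. Glucosamine-6-phosphate was flowed in at 40 μM to 10 mM in HEPES/KCl/Mg(OAc)2 buffer. kcat and KM were taken from weighted Michaelis–Menten fits of kobs values from exponential decay fits.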

[2] = variants of: B1; assay: self-cleavage kobs at 10000 uM GlcN6P; higher = faster cleavage; RNA array
How it was run: as §1

[3] = variants of: B1; assay: self-cleavage kobs at 160 uM GlcN6P; higher = faster cleavage; RNA array
How it was run: as §1

[4] = variants of: B1; assay: self-cleavage kobs at 640 uM GlcN6P; higher = faster cleavage; RNA array
How it was run: as §1

[5] = variants of: B1; assay: self-cleavage kobs at 2500 uM GlcN6P; higher = faster cleavage; RNA array
How it was run: as §1

Variant: AUAAAACCGCCAGAACUACAGAAAUGUAGUUGACGAGGAGGAGGUUUAUCGAAUGUUCGGCGGAUGCCUCCAAA
- self-cleavage kobs at 40 uM GlcN6P [1]: < 1e-05 s⁻¹
- self-cleavage kobs at 10000 uM GlcN6P [2]: < 1e-05 s⁻¹

Variant: AUAAAACCGCCAGAACUACAGAAAUGUAGUUGACGAGGAGGAGGUUUAUCGAAUAUUCGGCGGAUGCCUCCAAA
- self-cleavage kobs at 40 uM GlcN6P [1]: < 1e-05 s⁻¹
- self-cleavage kobs at 160 uM GlcN6P [3]: < 1e-05 s⁻¹
- self-cleavage kobs at 640 uM GlcN6P [4]: < 1e-05 s⁻¹
- self-cleavage kobs at 2500 uM GlcN6P [5]: < 1e-05 s⁻¹

Variant: AUAAAACCGCCAGAACUACAGAAAUGUAGUUGACGAGGAGGAGGUUCAUCGAAUUUUCGGCGGAUGCCUCCAAA
- self-cleavage kobs at 40 uM GlcN6P [1]: < 1e-05 s⁻¹
- self-cleavage kobs at 160 uM GlcN6P [3]: < 1e-05 s⁻¹
- self-cleavage kobs at 640 uM GlcN6P [4]: < 1e-05 s⁻¹
- self-cleavage kobs at 10000 uM GlcN6P [2]: < 1e-05 s⁻¹

Variant: AUAAAACCGCCAGAACUACAGAAAUGUAGUUGACGAGGAGGAGGUUUAUCGAAAUUUCGGCGGAUGCCUCCAAA
- self-cleavage kobs at 40 uM GlcN6P [1]: < 1e-05 s⁻¹
- self-cleavage kobs at 640 uM GlcN6P [4]: < 1e-05 s⁻¹
- self-cleavage kobs at 10000 uM GlcN6P [2]: < 1e-05 s⁻¹

Variant: AUAAAACCGCCAGAACUACAGAAAUGUAGUUGACGAGGAGGAGGUUUAUCAAAUUUUCGGCGGAUGCCUCCAAA
- self-cleavage kobs at 40 uM GlcN6P [1]: < 1e-05 s⁻¹
- self-cleavage kobs at 160 uM GlcN6P [3]: < 1e-05 s⁻¹
- self-cleavage kobs at 640 uM GlcN6P [4]: < 1e-05 s⁻¹
- self-cleavage kobs at 10000 uM GlcN6P [2]: < 1e-05 s⁻¹

Variant: AUAAAAUCGCCAGAACUACAGAAAUGUAGUUGGCGAGGAGGAGGUUUAUCGAAUAUUCGGCGGAUGCCUCCAAA
- self-cleavage kobs at 40 uM GlcN6P [1]: < 1e-05 s⁻¹
- self-cleavage kobs at 10000 uM GlcN6P [2]: < 1e-05 s⁻¹

Variant: AUAAAACCGCCAGAACUACAGAAAUGUAGUUGACGAGGAGGAGGUUUAUCGAAUUUUCGGCGGAUUCCUCCAAA
- self-cleavage kobs at 40 uM GlcN6P [1]: < 1e-05 s⁻¹
- self-cleavage kobs at 160 uM GlcN6P [3]: < 1e-05 s⁻¹
- self-cleavage kobs at 640 uM GlcN6P [4]: < 1e-05 s⁻¹
- self-cleavage kobs at 2500 uM GlcN6P [5]: < 1e-05 s⁻¹

Variant: AUAAAACCGCCAGAACUACAGAAAUGUAGUUGACGAGGAAGAGGUUUAUCGAAUUUUCGGCGGAUGCCUCCAAA
- self-cleavage kobs at 40 uM GlcN6P [1]: < 1e-05 s⁻¹
- self-cleavage kobs at 160 uM GlcN6P [3]: < 1e-05 s⁻¹
- self-cleavage kobs at 640 uM GlcN6P [4]: < 1e-05 s⁻¹
- self-cleavage kobs at 2500 uM GlcN6P [5]: < 1e-05 s⁻¹
- self-cleavage kobs at 10000 uM GlcN6P [2]: < 1e-05 s⁻¹

Variant: AUAAAACCGCCAGAACUACAGAAAUGUAGUCGACGAGGAGGACGUUUAUUGAAUUUUCGGCGGAUGCCUCCAAA
- self-cleavage kobs at 40 uM GlcN6P [1]: < 1e-05 s⁻¹
- self-cleavage kobs at 160 uM GlcN6P [3]: < 1e-05 s⁻¹
- self-cleavage kobs at 640 uM GlcN6P [4]: < 1e-05 s⁻¹
- self-cleavage kobs at 10000 uM GlcN6P [2]: < 1e-05 s⁻¹

Variant: AUAAAACCGCCAGAACUACAGAAAUGUAGUUGACGAGGAGGAGGUUGAUCGAAUUGUCUCCGGAUGCCUCCAAA
- self-cleavage kobs at 40 uM GlcN6P [1]: < 1e-05 s⁻¹

Variant: AUAAAACCGCCAGAACUACAGAAAUGUAGUUGACGAGGAGGAGGUUUAACGAAUUUUCGGCGGAUGCCUCCAAA
- self-cleavage kobs at 40 uM GlcN6P [1]: < 1e-05 s⁻¹
- self-cleavage kobs at 160 uM GlcN6P [3]: < 1e-05 s⁻¹
- self-cleavage kobs at 2500 uM GlcN6P [5]: < 1e-05 s⁻¹
- self-cleavage kobs at 10000 uM GlcN6P [2]: < 1e-05 s⁻¹

Variant: AUAAAAUCGCCUGAACUACAGAAAUGUAGUUGACGAGGAGGAGGUUUAUCGGAUGUUCGGCGGAUGCCUCCAAA
- self-cleavage kobs at 40 uM GlcN6P [1]: < 1e-05 s⁻¹
- self-cleavage kobs at 10000 uM GlcN6P [2]: < 1e-05 s⁻¹

Variant: AUAAAACCGCCAGAACUACAGAAAUGUAGUUGACGAGGAGGAGGUUUAUCGAAUUUUCGGCGCAUGCGACCAAA
- self-cleavage kobs at 40 uM GlcN6P [1]: < 1e-05 s⁻¹
- self-cleavage kobs at 10000 uM GlcN6P [2]: < 1e-05 s⁻¹

Variant: AUAAAACCGCCAGAACUACAGAAAUGUAGUAGACGAGGAGGAGGUUUAUCGAAUUUUCGGCGGAUGCCUCCAAA
- self-cleavage kobs at 40 uM GlcN6P [1]: < 1e-05 s⁻¹
- self-cleavage kobs at 640 uM GlcN6P [4]: < 1e-05 s⁻¹
- self-cleavage kobs at 2500 uM GlcN6P [5]: < 1e-05 s⁻¹
- self-cleavage kobs at 10000 uM GlcN6P [2]: < 1e-05 s⁻¹

Variant: AUAAAAUCGCCAGAACUACAGAAAUGUAGUUGACGCGGAGGAGGUUUAUCGAAUUUUCUGCGGAUGCCUCCAAA
- self-cleavage kobs at 40 uM GlcN6P [1]: < 1e-05 s⁻¹
- self-cleavage kobs at 10000 uM GlcN6P [2]: < 1e-05 s⁻¹

Variant: AUAAAACCGCCAGAACUACAGAAAUGUAGUUUAACAGGAGGAGGUUUAUCGAAUUUUCGGCGGAUGCCUCCAAA
- self-cleavage kobs at 40 uM GlcN6P [1]: < 1e-05 s⁻¹

Variant: AUAAAACCGCCAGAACUACAGAAAUGUAGUUGACGAGGAGGAGCUUUAUCGAAUUUUCGGCGGUUGCCUCCAAA
- self-cleavage kobs at 40 uM GlcN6P [1]: < 1e-05 s⁻¹
- self-cleavage kobs at 10000 uM GlcN6P [2]: < 1e-05 s⁻¹

Variant: AUAAAAUCGCCAGAACUACAGAAAUGUAGUUGACGUGGACGAGGUUUAUCGAAUUUUCGGCGGAUGCCUCCAAA
- self-cleavage kobs at 40 uM GlcN6P [1]: < 1e-05 s⁻¹
- self-cleavage kobs at 2500 uM GlcN6P [5]: < 1e-05 s⁻¹
- self-cleavage kobs at 10000 uM GlcN6P [2]: < 1e-05 s⁻¹

Variant: AUAAAACCGCCAGAACUACAGAAAUGUAGUUGACGAGGAGUAGGUUUAUCGAAUUUUCGGCGGAUGCCUCCAAA
- self-cleavage kobs at 40 uM GlcN6P [1]: < 1e-05 s⁻¹
- self-cleavage kobs at 160 uM GlcN6P [3]: < 1e-05 s⁻¹
- self-cleavage kobs at 2500 uM GlcN6P [5]: < 1e-05 s⁻¹
- self-cleavage kobs at 10000 uM GlcN6P [2]: < 1e-05 s⁻¹

Variant: AUAAAACCGCCAGAACUACAGAAAUGUAGUUGACGAGGAGGAGGUUUAUCGAAUUGUCGGCGGAUGCCUCCAAA
- self-cleavage kobs at 40 uM GlcN6P [1]: < 1e-05 s⁻¹
- self-cleavage kobs at 160 uM GlcN6P [3]: < 1e-05 s⁻¹
- self-cleavage kobs at 640 uM GlcN6P [4]: < 1e-05 s⁻¹
- self-cleavage kobs at 2500 uM GlcN6P [5]: < 1e-05 s⁻¹
- self-cleavage kobs at 10000 uM GlcN6P [2]: < 1e-05 s⁻¹

Variant: AUAAAAUCGCCGGAACUACAGAAAUGUAGUUGACGAGGAGGAGGUUUAUCGAAUUUUCGGCGGAUGCCUCCAAA
- self-cleavage kobs at 40 uM GlcN6P [1]: < 1e-05 s⁻¹
- self-cleavage kobs at 160 uM GlcN6P [3]: < 1e-05 s⁻¹
- self-cleavage kobs at 640 uM GlcN6P [4]: < 1e-05 s⁻¹
- self-cleavage kobs at 10000 uM GlcN6P [2]: < 1e-05 s⁻¹

Variant: AUAAAAUCGCCAGAACUACAGAAAUGUAGUUGUCGAGGAGGAGGUUUAUCGAAUUUUCGGCGGGUGCCUGCAAA
- self-cleavage kobs at 40 uM GlcN6P [1]: < 1e-05 s⁻¹

Variant: AUAAAACCGCCAGAACUACAGAAAUGUAGGUGACUAUGAGGAGGUUUAUCGAAUUUCCGGCGGAUGCCUCGAAA
- self-cleavage kobs at 40 uM GlcN6P [1]: < 1e-05 s⁻¹
- self-cleavage kobs at 10000 uM GlcN6P [2]: < 1e-05 s⁻¹

Variant: AUAAAACCGCCAGAACUACAGAAAUGUAGUUGACGAGGAGGAGGUUUAUCGAAUUUUCGGCGGAGGCCUCCAAA
- self-cleavage kobs at 40 uM GlcN6P [1]: < 1e-05 s⁻¹
- self-cleavage kobs at 640 uM GlcN6P [4]: < 1e-05 s⁻¹
- self-cleavage kobs at 2500 uM GlcN6P [5]: < 1e-05 s⁻¹
- self-cleavage kobs at 10000 uM GlcN6P [2]: < 1e-05 s⁻¹

Variant: AUAAAACCGCCAGAACUACAGAAAUGUAGUGGACGAGGAGGAAGUUUAUCGAAUGUUCGGCGGAUGCUUCCAAA
- self-cleavage kobs at 40 uM GlcN6P [1]: < 1e-05 s⁻¹
